Assays:
Assay in all cases: cell-based or functional assay
[1] = target: HIV-1 Env of isolate MGRM-D-019 (HIV-1)
[2] = target: HIV-1 Env of isolate NL43 (HIV-1)
[3] = target: HIV-1 Env of isolate MGRM-F1-015 (HIV-1)
[4] = target: HIV-1 Env of isolate MGRM-D-011 (HIV-1)
[5] = target: HIV-1 Env of isolate SC422661.8 (HIV-1)
[6] = target: HIV-1 Env of isolate MGRM-D-020 (HIV-1)
[7] = target: HIV-1 Env of isolate MGRM-D-014 (HIV-1)
[8] = target: HIV-1 Env of isolate MGRM-D-013 (HIV-1)
[9] = target: HIV-1 Env of isolate MGRM-F1-020 (HIV-1)
[10] = target: HIV-1 Env of isolate MGRM-F1-014 (HIV-1)
[11] = target: HIV-1 Env of isolate MGRM-F1-010 (HIV-1)
[12] = target: HIV-1 Env of isolate MGRM-D-026 (HIV-1)
[13] = target: HIV-1 Env of isolate MGRM-F1-006 (HIV-1)
[14] = target: HIV-1 Env of isolate MGRM-Chronic-B-020 (HIV-1)
[15] = target: HIV-1 Env of isolate MGRM-F1-016 (HIV-1)
[16] = target: HIV-1 Env of isolate MGRM-F1-022 (HIV-1)
[17] = target: HIV-1 Env of isolate MGRM-F1-021 (HIV-1)
[18] = target: HIV-1 Env of isolate MGRM-Chronic-B-012 (HIV-1)
[19] = target: HIV-1 Env of isolate MGRM-D-018 (HIV-1)
[20] = target: HIV-1 Env of isolate MGRM-F1-013 (HIV-1)
[21] = target: HIV-1 Env of isolate MGRM-F1-008 (HIV-1)
[22] = target: HIV-1 Env of isolate MGRM-D-022 (HIV-1)
[23] = target: HIV-1 Env of isolate MGRM-Chronic-B-023 (HIV-1)
[24] = target: HIV-1 Env of isolate MGRM-Chronic-B-018 (HIV-1)
[25] = target: HIV-1 Env of isolate MGRM-Chronic-B-010 (HIV-1)
[26] = target: HIV-1 Env of isolate MGRM-F1-018 (HIV-1)
[27] = target: HIV-1 Env of isolate VLGCB3 (HIV-1)
[28] = target: HIV-1 Env of isolate MGRM-D-024 (HIV-1)
[29] = target: HIV-1 Env of isolate TRO.11 (HIV-1)
[30] = target: HIV-1 Env of isolate 93MW959 (HIV-1)
[31] = target: HIV-1 Env of isolate MGRM-Chronic-B-024 (HIV-1)
[32] = target: HIV-1 Env of isolate JRCSF (HIV-1) (UniProt P20871)
[33] = target: HIV-1 Env of isolate MGRM-Chronic-B-011 (HIV-1)
[34] = target: HIV-1 Env of isolate 98IN022 (HIV-1)
[35] = target: HIV-1 Env of isolate QH0692.42 (HIV-1)
[36] = target: HIV-1 Env of isolate 97ZA012 (HIV-1)
[37] = target: HIV-1 Env of isolate MGRM-D-016 (HIV-1)
[38] = target: HIV-1 Env of isolate MGRM-D-028 (HIV-1)
[39] = target: HIV-1 Env of isolate THR0.18 (HIV-1)
[40] = target: HIV-1 Env of isolate TRJ04551.58 (HIV-1)
[41] = target: HIV-1 Env of isolate PVO.4 (HIV-1)
[42] = target: HIV-1 Env of isolate MGRM-F1-012 (HIV-1)
[43] = target: HIV-1 Env of isolate 93IN905 (HIV-1)
[44] = target: HIV-1 Env of isolate MGRM-F1-023 (HIV-1)
[45] = target: HIV-1 Env of isolate MGRM-D-012 (HIV-1)
[46] = target: HIV-1 Env of isolate MGRM-D-021 (HIV-1)
[47] = target: HIV-1 Env of isolate MGRM-F1-004 (HIV-1)
[48] = target: HIV-1 Env of isolate MGRM-D-029 (HIV-1)
[49] = target: HIV-1 Env of isolate SF162 (HIV-1) (UniProt P19550)
[50] = target: HIV-1 Env of isolate MGRM-Chronic-B-017 (HIV-1)
[51] = target: HIV-1 Env of isolate MGRM-F1-017 (HIV-1)

Chain of PGT-144 (antibody) (VH): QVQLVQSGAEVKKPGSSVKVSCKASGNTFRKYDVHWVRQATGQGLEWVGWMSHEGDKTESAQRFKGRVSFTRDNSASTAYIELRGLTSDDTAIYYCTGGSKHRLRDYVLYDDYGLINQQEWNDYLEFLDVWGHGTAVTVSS
Chain of PGT-144 (antibody) (VL): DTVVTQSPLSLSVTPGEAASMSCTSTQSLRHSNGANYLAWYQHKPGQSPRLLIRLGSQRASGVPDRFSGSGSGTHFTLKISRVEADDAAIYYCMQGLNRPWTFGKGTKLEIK
Chain of PGT-143 (antibody) (VH): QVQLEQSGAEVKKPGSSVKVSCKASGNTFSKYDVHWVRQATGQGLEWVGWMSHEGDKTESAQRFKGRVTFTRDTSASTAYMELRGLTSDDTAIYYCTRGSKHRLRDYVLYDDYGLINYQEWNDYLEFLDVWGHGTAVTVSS
Chain of PGT-143 (antibody) (VL): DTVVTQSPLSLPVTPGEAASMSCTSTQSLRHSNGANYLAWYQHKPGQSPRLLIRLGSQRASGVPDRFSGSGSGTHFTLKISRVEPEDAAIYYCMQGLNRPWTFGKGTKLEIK

PGT-143 (antibody)
IC50, pseudovirus neutralization [1]: 0.277 µg/mL | neutralization IC50 [2]: > 50 µg/mL | IC50, pseudovirus neutralization [3]: > 50 µg/mL | IC50, pseudovirus neutralization [4]: > 50 µg/mL | neutralization IC50 [5]: 2.02 µg/mL | IC50, pseudovirus neutralization [6]: > 50 µg/mL | IC50, pseudovirus neutralization [7]: 0.009 µg/mL | IC50, pseudovirus neutralization [8]: 0.386 µg/mL | IC50, pseudovirus neutralization [9]: 0.98 µg/mL | IC50, pseudovirus neutralization [10]: 0.001 µg/mL | IC50, pseudovirus neutralization [11]: > 50 µg/mL | IC50, pseudovirus neutralization [12]: 44.6 µg/mL | IC50, pseudovirus neutralization [13]: 12.3 µg/mL | neutralization IC50 [14]: > 50 µg/mL | IC50, pseudovirus neutralization [15]: > 50 µg/mL | IC50, pseudovirus neutralization [16]: 0.082 µg/mL | IC50, pseudovirus neutralization [17]: > 50 µg/mL | neutralization IC50 [18]: > 50 µg/mL | IC50, pseudovirus neutralization [19]: > 50 µg/mL | IC50, pseudovirus neutralization [20]: 0.013 µg/mL | IC50, pseudovirus neutralization [21]: 0.189 µg/mL | IC50, pseudovirus neutralization [22]: > 50 µg/mL | neutralization IC50 [23]: 0.236 µg/mL | neutralization IC50 [24]: 0.377 µg/mL | neutralization IC50 [25]: > 50 µg/mL | IC50, pseudovirus neutralization [26]: 0.701 µg/mL | neutralization IC50 [27]: > 50 µg/mL | IC50, pseudovirus neutralization [28]: > 50 µg/mL | neutralization IC50 [29]: 0.219 µg/mL | neutralization IC50 [30]: 0.002 µg/mL | neutralization IC50 [31]: 0.01 µg/mL | neutralization IC50 [32]: 0.007 µg/mL | neutralization IC50 [33]: 1.56 µg/mL | neutralization IC50 [34]: 0.001 µg/mL | neutralization IC50 [35]: > 50 µg/mL | neutralization IC50 [36]: > 50 µg/mL | IC50, pseudovirus neutralization [37]: > 50 µg/mL | IC50, pseudovirus neutralization [38]: > 50 µg/mL | neutralization IC50 [39]: 0.016 µg/mL | neutralization IC50 [40]: > 50 µg/mL | neutralization IC50 [41]: 0.162 µg/mL | IC50, pseudovirus neutralization [42]: > 50 µg/mL | neutralization IC50 [43]: 0.002 µg/mL | IC50, pseudovirus neutralization [44]: 0.972 µg/mL | IC50, pseudovirus neutralization [45]: > 50 µg/mL | IC50, pseudovirus neutralization [46]: > 50 µg/mL | IC50, pseudovirus neutralization [47]: 0.036 µg/mL | IC50, pseudovirus neutralization [48]: 0.2 µg/mL | neutralization IC50 [49]: > 50 µg/mL | neutralization IC50 [50]: 0.145 µg/mL | IC50, pseudovirus neutralization [51]: 26.3 µg/mL

PGT-144 (antibody)
IC50, pseudovirus neutralization [1]: > 50 µg/mL | neutralization IC50 [2]: > 50 µg/mL | IC50, pseudovirus neutralization [3]: > 50 µg/mL | IC50, pseudovirus neutralization [4]: > 50 µg/mL | neutralization IC50 [5]: > 50 µg/mL | IC50, pseudovirus neutralization [6]: > 50 µg/mL | IC50, pseudovirus neutralization [7]: 0.113 µg/mL | IC50, pseudovirus neutralization [8]: > 50 µg/mL | IC50, pseudovirus neutralization [9]: 8.93 µg/mL | IC50, pseudovirus neutralization [10]: 0.014 µg/mL | IC50, pseudovirus neutralization [11]: > 50 µg/mL | IC50, pseudovirus neutralization [12]: > 50 µg/mL | IC50, pseudovirus neutralization [13]: 20.6 µg/mL | neutralization IC50 [14]: > 50 µg/mL | IC50, pseudovirus neutralization [15]: > 50 µg/mL | IC50, pseudovirus neutralization [16]: 0.382 µg/mL | IC50, pseudovirus neutralization [17]: > 50 µg/mL | neutralization IC50 [18]: > 50 µg/mL | IC50, pseudovirus neutralization [19]: > 50 µg/mL | IC50, pseudovirus neutralization [20]: 0.509 µg/mL | IC50, pseudovirus neutralization [21]: 0.507 µg/mL | IC50, pseudovirus neutralization [22]: > 50 µg/mL | neutralization IC50 [23]: > 50 µg/mL | neutralization IC50 [24]: 2.4 µg/mL | neutralization IC50 [25]: > 50 µg/mL | IC50, pseudovirus neutralization [26]: > 50 µg/mL | neutralization IC50 [27]: > 50 µg/mL | IC50, pseudovirus neutralization [28]: > 50 µg/mL | neutralization IC50 [29]: 4.73 µg/mL | neutralization IC50 [30]: 0.332 µg/mL | neutralization IC50 [31]: 0.04 µg/mL | neutralization IC50 [32]: 0.149 µg/mL | neutralization IC50 [33]: 5.64 µg/mL | neutralization IC50 [34]: 0.171 µg/mL | neutralization IC50 [35]: > 50 µg/mL | neutralization IC50 [36]: > 50 µg/mL | IC50, pseudovirus neutralization [37]: > 50 µg/mL | IC50, pseudovirus neutralization [38]: > 50 µg/mL | neutralization IC50 [39]: 0.029 µg/mL | neutralization IC50 [40]: > 50 µg/mL | neutralization IC50 [41]: 0.535 µg/mL | IC50, pseudovirus neutralization [42]: > 50 µg/mL | neutralization IC50 [43]: 0.132 µg/mL | IC50, pseudovirus neutralization [44]: 1.16 µg/mL | IC50, pseudovirus neutralization [45]: > 50 µg/mL | IC50, pseudovirus neutralization [46]: > 50 µg/mL | IC50, pseudovirus neutralization [47]: 0.105 µg/mL | IC50, pseudovirus neutralization [48]: 0.459 µg/mL | neutralization IC50 [49]: > 50 µg/mL | neutralization IC50 [50]: 0.712 µg/mL | IC50, pseudovirus neutralization [51]: > 50 µg/mL
